Patent US20240052061A1

Biological target: T1, human ecto-nucleoside triphosphate diphosphohydrolase-3 (NTPDase3) (human) (UniProt O75355)
T1 sequence (looked up): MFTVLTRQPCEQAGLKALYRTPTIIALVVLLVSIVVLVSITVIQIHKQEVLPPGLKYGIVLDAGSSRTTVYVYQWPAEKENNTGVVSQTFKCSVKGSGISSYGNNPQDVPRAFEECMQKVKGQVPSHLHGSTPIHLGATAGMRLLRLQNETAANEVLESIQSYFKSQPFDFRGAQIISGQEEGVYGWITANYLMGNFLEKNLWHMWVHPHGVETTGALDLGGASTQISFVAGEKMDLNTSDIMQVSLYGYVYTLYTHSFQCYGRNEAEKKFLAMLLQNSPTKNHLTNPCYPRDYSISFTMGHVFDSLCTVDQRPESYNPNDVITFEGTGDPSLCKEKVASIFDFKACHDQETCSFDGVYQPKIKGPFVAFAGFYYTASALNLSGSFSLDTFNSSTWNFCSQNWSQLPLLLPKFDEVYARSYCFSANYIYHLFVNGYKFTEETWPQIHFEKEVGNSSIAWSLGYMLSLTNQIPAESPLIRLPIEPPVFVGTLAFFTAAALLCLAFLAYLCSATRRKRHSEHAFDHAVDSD
Assay: cell-based or functional assay

B1: 8E1 hIgG1 (antibody, V domains shown)
VH: EQQLLESGGGLVQPGGSLRLSCAVSGFSLSSYAMGWVRQAPGKGLEFIGIISYSGNTYYASWAKGRFTISKDSSKNTVYLQMNSLRAEDTAVYFCARARYGGYSTNSYYLNIWGPGTLVTVSS
VL: DVQMTQSPSTLSASVGDRVTITCQASENIYRVLAWYQQKPGKRPKLLIYGASNLESGVPSRFSGSGSGTEYTLTISSLQPDDFATYYCQGVVYNSDDSAFGGGTKVEIK
ADCC EC50 (µg/mL), NFAT luciferase reporter Jurkat/hCD16a-158V: 0.047 µg/mL
ADCC fold increase in relation to parental clone at 1 µg/mL: 1.5 fold
CDC % of Maximal Cytotoxicity: 25%
CDC EC50: 0.867 mg/L
CDC: fold increase in the maximal CDC cytotoxicity over the parental 8E1 Hu/Ra chimeric clone: 2 fold
Enzyme Activity Inhibition Capacity: % of Maximal Inhibition: 15%
